In publication PMC12043510:
pKd: −log10 of the molar value.

Assays:
[1] = target: GST–CP (rice stripe virus (RSV)); test: MST
[2] = target: MBP–P2^1–786 (rice dwarf virus (RDV)); test: MST

MBP–RBRL (from UniProt Q75LV6 1-540) (enzyme)
pKd [1]: 8.28 | pKd [2]: 6.74
